# From paper PMC9994480, “Infancy‐onset diabetes caused by de‐regulated AMPylation of the human endoplasmic reticulum chaperone BiP” (EMBO Molecular Medicine, 2023)
# B1: wild-type FICD, structured luminal domain (residues 104–445) (enzyme, human, UniProt Q9BVA6 104-445, looked up)
# chain: LEARAALNQALEMKRQGKREKAQKLFMHALKMDPDFVDALTEFGIFSEEDKDIIQADYLYTRALTISPYHEKALVNRDRTLPLVEEIDQRYFSIIDSKVKKVMSIPKGNSALRRVMEETYYHHIYHTVAIEGNTLTLSEIRHILETRYAVPGKSLEEQNEVIGMHAAMKYINTTLVSRIGSVTISDVLEIHRRVLGYVDPVEAGRFRTTQVLVGHHIPPHPQDVEKQMQEFVQWLNSEEAMNLHPVEFAALAHYKLVYIHPFIDGNGRTSRLLMNLILMQAGYPPITIRKEQRSDYYHVLEAANEGDVRPFIRFIAKCTETTLDTLLFATTEYSVALPEAQP
# notes: human FICD, structured region, residues 104-445; The methods say His6-SUMO fusion (cleaved by Ulp1) or GST fusion (cleaved by TEV) without telling which for which protein; Purification as in Perera et al, 2019, 2021; also called WT; FICD^WT; not shown: His6-SUMO (or GST)
# B2: FICD^R371S, structured luminal domain (residues 104–445) (enzyme, human, UniProt Q9BVA6 104-445, looked up)
# chain: LEARAALNQALEMKRQGKREKAQKLFMHALKMDPDFVDALTEFGIFSEEDKDIIQADYLYTRALTISPYHEKALVNRDRTLPLVEEIDQRYFSIIDSKVKKVMSIPKGNSALRRVMEETYYHHIYHTVAIEGNTLTLSEIRHILETRYAVPGKSLEEQNEVIGMHAAMKYINTTLVSRIGSVTISDVLEIHRRVLGYVDPVEAGRFRTTQVLVGHHIPPHPQDVEKQMQEFVQWLNSEEAMNLHPVEFAALAHYKLVYIHPFIDGNGSTSRLLMNLILMQAGYPPITIRKEQRSDYYHVLEAANEGDVRPFIRFIAKCTETTLDTLLFATTEYSVALPEAQP
# notes: human FICD, structured region, residues 104-445, with the patients' variant p.(Arg371Ser); Variant found homozygous in patients (NM_007076.2:c.1113G>C); also called Arg371Ser mutant FICD; FICD p.(Arg371Ser); not shown: His6-SUMO (or GST)
# Target: the molecule itself
# Assay: SEC; analytical SEC, Agilent Bio SEC-3 HPLC column, TNT buffer (25 mM Tris pH 8.0, 150 mM NaCl, 1 mM TCEP), 25°C; proteins diluted to a range of concentrations (Fig 3B) and incubated at least 1 h at room temperature; 0.3 ml/min
row,Protein,stoichiometry N
1,B1,2
2,B2,2
